Measurements as given in paper PMC8000399.

Target: adzuki bean (Vigna angularis) β-vignin protein (Vigna angularis (adzuki bean))
Experiment: SEC; gel molecular sieving on a Sephadex G-200 column (50 cm x 2.5 cm) under native condition, 0.58 mL/min, room temperature; calibrated with standard proteins; apparent molecular size compared with the subunits' Mr from SDS-PAGE

“adzuki bean (Vigna angularis) β-vignin protein (natural protein)” showed a stoichiometry N of 3.
